Source: patent US5559019A, “Protein serine kinase, SRPK1” (The Regents of the University of California, priority 1994, dated 1996)

Substrate: Nc1ncnc2c1ncn2[C@@H]1O[C@H](COP(=O)(O)OP(=O)(O)OP(=O)(O)O)[C@@H](O)[C@H]1O
Assay: SRPK1 kinase assay, determination of Km for ATP (double-reciprocal plots, SF2/ASF as substrate)
Format: biochemical, human
Conditions: other: ATP titrated against four SF2/ASF concentrations (bacterially expressed SF2/ASF as substrate), pH 7.4, 30.0 °C
Experimental: FIG. 7 describes the kinetic properties of SRPK1. […] Different ATP concentrations were titrated against four SF2/ASF concentrations (.diamond-solid.0.05 μM; .circle-solid.0.1 μM; Δ0.05 μM; .diamond.0.7 μM). […] Five SF2/ASF concentrations (0.05 μM, 0.1 μM, 0.25 μM, 0.5 μM, and 1.0 μM) and four MBP concentrations (2.5 μM, 5.0 μM, 12.5 μM, and 25 μM) were used in the phosphorylation reactions. Saturating ATP (100 μM) and SRPK1 (27,000 units) were used in these reactions.
0.5 μg of purified SC35 or SF2/ASF was used as a substrate in a final volume of 20 μl kinase assay mixture containing 50 mM Tris-pH7.4, 10 mM MgCl2, 1 mM DTT, 2 μM ATP, and 2 μCi [^32 P-]ATP. The reaction was initiated by adding 2 μl of each column fraction and incubated at room temperature for 15 min. Proteins were, resolved in a 12.5% SDS gel. After staining and autoradiography, gel slices containing radioactive proteins were quantitated in a liquid scintillation counter. For saturation phosphorylation of SF2/ASF, 100 μM ATP was used, and the reaction was carried out at 30° C. for 2 hours.
SRPK1 is specific for splicing factors containing an SR domain as shown in EXAMPLE 4. Kinetic analyses were carried out to further characterize the kinase. […] The kinase activity depended on ATP concentration with a Km for ATP of 10 μM (FIG. 7A). […]

B1: SRPK1 (SR protein-specific kinase, 92 kD) purified from Hela cell S100 extracts, SEQ ID NO:2 (Homo sapiens) (protein)
chain: MERKVLALQARKKRTKAKKDKAQRKSETQHRGSAPHSESDLPEQEEEILGSDDDEQEDPNDYCKGGYHLVKIGDLFNGRYHVIRKLGWGHFSTVWLSWDIQGKKFVAMKVVKSAEHYTETALDEIRLLKSVRNSDPNDPNREMVVQLLDDFKISGVNGTHICMVFEVLGHHLLKWIIKSNYQGLPLPCVKKIIQQVLQGLDYLHTKCRIIHTDIKPENILLSVNEQYIRRLAAEATEWQRSGAPPPSGSAVSTAPQPKPADKMSKNKKKKLKKKQKRQAELLEKRMQEIEEMEKESGPGQKRPNKQEESESPVERPLKENPPNKMTQEKLEESSTIGQDQTLMERDTEGGAAEINCNGVIEVINYTQNSNNETLRHKEDLHNANDCDVQNLNQESSFLSSQNGDSSTSQETDSCTPITSEVSDTMVCQSSSTVGQSFSEQHISQLQESIRAEIPCEDEQEQEHNGPLDNKGKSTAGNFLVNPLEPKNAEKLKVKIADLGNACWVHKHFTEDIQTRQYRSLEVLIGSGYNTPADIWSTACMAFELATGDYLFEPHSGEEYTRDEDHIALIIELLGKVPRKLIVAGKYSKEFFTKKGDLKHITKLKPWGLFEVLVEKYEWSQEEAAGFTDFLLPMLELIPEKRATAAECLRHPWLNS
notes: SRPK1 PURIFICATION FROM HELA CELL S100 EXTRACTS; endogenous in cells; host or cells: HeLa cells (S100 extract; phosphocellulose P11, Phenyl Sepharose, Mono Q, Mono S)
Work on B1 yielded a Km of 10 µM.
